Reference: paper PMC11080044, “Contribution of a C-Terminal Extension to the Substrate Affinity and Oligomeric Stability of Aldehyde Dehydrogenase from Thermus thermophilus HB27” (Biochemistry, 2024)

B1: ALDHTt-508, aldehyde dehydrogenase from Thermus thermophilus HB27 with a 22-amino acid truncation of the C-terminus (enzyme, UniProt Q72KD3 1-508, looked up)
chain: MRKAAGKYGNTLEFGHLVGGEEVLEGPLLERRNPSDREDVVARFPEADKDLVRKAALKAREAFAEWSRTPAPIRGQVLFNLVKILEREKPTLTRLMVREVGKTPKEAAGDVQEAIDTALFFASEGRRLYGQTVPSEMRDKELFTFRRPLGVVGIITAGNFPIAVPSWKLIPAVLTGNTVVWKPSEDAPTLSFVFAKLFEEAGLPPGVLNVVFGGGKGSTGQWMVELMDEGLFQKFAFTGSTQVGRWIGEVAGRNLIRPTLELGGKNPLVVMRDADLDLAVEGAWWSAFATGGQRCTSAGNILVDAPIYEEFKRRFLERVEATLVGNPLLHPEVTYGPFINERFFARWQEHYRVGEAEGARLLFGRGRITRENPYPRFLGDPEAGLYGWPTVWEVRPGTRLFTEEVFGPTINLVKVDGIEEAIAVANSTPYGLSSAIYTNHRHWAYLFKVGIRAGMTSINNATVGAEAHLPFGGVKASGNGGRESGIWVLEEYTYWHAVNEEYSGRLQL
notes: Aldehyde dehydrogenase ALDHTt of Thermus thermophilus strain HB27, UniProtKB Q72KD3, without the last 22 amino acids of the 530; also called truncated mutant
B2: Aldehyde dehydrogenase from Thermus thermophilus HB27, native (ALDHTt-native) (enzyme, UniProt Q72KD3 1-530, looked up)
chain: MRKAAGKYGNTLEFGHLVGGEEVLEGPLLERRNPSDREDVVARFPEADKDLVRKAALKAREAFAEWSRTPAPIRGQVLFNLVKILEREKPTLTRLMVREVGKTPKEAAGDVQEAIDTALFFASEGRRLYGQTVPSEMRDKELFTFRRPLGVVGIITAGNFPIAVPSWKLIPAVLTGNTVVWKPSEDAPTLSFVFAKLFEEAGLPPGVLNVVFGGGKGSTGQWMVELMDEGLFQKFAFTGSTQVGRWIGEVAGRNLIRPTLELGGKNPLVVMRDADLDLAVEGAWWSAFATGGQRCTSAGNILVDAPIYEEFKRRFLERVEATLVGNPLLHPEVTYGPFINERFFARWQEHYRVGEAEGARLLFGRGRITRENPYPRFLGDPEAGLYGWPTVWEVRPGTRLFTEEVFGPTINLVKVDGIEEAIAVANSTPYGLSSAIYTNHRHWAYLFKVGIRAGMTSINNATVGAEAHLPFGGVKASGNGGRESGIWVLEEYTYWHAVNEEYSGRLQLAQMDTGYVSPKAPTPWGEVLGL
notes: Aldehyde dehydrogenase ALDHTt of Thermus thermophilus strain HB27, UniProtKB Q72KD3, 530 amino acids, with its 30-residue C-terminal tail; pET22b(+) construct

Key:
[1] = biological target: Q72KD3; test: SEC; SE-HPLC as in a1, after 5 min incubation at 65 °C and centrifugation at 10000 x g
[2] = biological target: Q72KD3; test: SEC; SE-HPLC (AdvanceBio SEC 300 Å), untreated protein injected directly after thawing, 0.5 mg/mL, 10 mM potassium phosphate buffer pH 8.0, room temperature; oligomeric states from a calibration plot, percent of peak area, triplicate
[3] = biological target: the molecule itself; test: as above
[4] = biological target: Q72KD3; test: SEC; SE-HPLC as in a1, after 10 min incubation at 65 °C and centrifugation at 10000 x g
[5] = biological target: the molecule itself; test: SEC; SE-HPLC (AdvanceBio SEC 300 Å) of ALDHTt-508 purified after a 15 min heat shock of the lysate at 65 °C; 50 µL of 0.5 mg/mL, percent of total peak area
[6] = biological target: Q72KD3; test: SEC; SE-HPLC as in a1, after 20 min incubation at 65 °C and centrifugation at 10000 x g
[7] = biological target: Q72KD3; test: SEC; SE-HPLC as in a1, after 15 min incubation at 65 °C and centrifugation at 10000 x g

| Protein | % dimer (SE-HPLC) [1] [%] | % monomer (SE-HPLC) [1] [%] | % tetramer (SE-HPLC) [1] [%] | % dimer (SE-HPLC) [2] [%] | % monomer (SE-HPLC) [2] [%] | % tetramer (SE-HPLC) [2] [%] | stoichiometry N [3] | % dimer (SE-HPLC) [4] [%] | % monomer (SE-HPLC) [4] [%] | % tetramer (SE-HPLC) [4] [%] | % of fully folded protein in the tetrameric peak [5] [%] | % dimer (SE-HPLC) [6] [%] | % monomer (SE-HPLC) [6] [%] | % tetramer (SE-HPLC) [6] [%] | % dimer (SE-HPLC) [7] [%] | % monomer (SE-HPLC) [7] [%] | % tetramer (SE-HPLC) [7] [%] |
| --- | --- | --- | --- | --- | --- | --- | --- | --- | --- | --- | --- | --- | --- | --- | --- | --- | --- |
| B1 | 0 | 0.87 | 95.4 | 1.71 | 2.5 | 90 | 4 | 0 | 0.79 | 93.1 | 6.4 ± 1.5 | 0 | 0.71 | 91.4 | 0 | 0.55 | 95.8 |
| B2 | 0 | 0 | 97.7 | 0 | 0 | 98.8 | 4 | 0 | 0 | 94.9 | – | 0 | 0 | 93.2 | 0 | 0 | 93.7 |
